Substitutions are numbered along the chain they refer to.
T1: hGal3 peptide 6 (human)
T1 peptide: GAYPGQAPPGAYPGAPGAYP

T2: hGal3 peptide 4 (human)
T2 peptide: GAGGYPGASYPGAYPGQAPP

T3: hGal3 peptide 1 (human)
T3 construct: also called peptide 1 of Gal3
T3 peptide: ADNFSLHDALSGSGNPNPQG

T4: hGal3 peptide 7 (human)
T4 peptide: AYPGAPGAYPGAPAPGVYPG

T5: hGal3 peptide 8 (human)
T5 peptide: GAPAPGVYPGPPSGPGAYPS

B1: 24D12.2H9 (antibody, V domains shown)
VH: QVQLKQSGPGLVQPSQSLSITCTVSGFSLTSYGVHWVRQAPGKGLEWLGVIWSGGSTDYNAAFMSRLSISKDNSKSQVFFKMNSLQADDTAIYYCAKSPDGYDVAWFGYWGQGTLVTVSA
VL: DIVMTQSHKFMSTSVGDRVSITCKASQDVRTAVAWYQQKPGQSPKLLIYWASTRHTGVPDRFTGSGSGTDFTLTLSNVQSEDLADYFCQQYSSYPWTFGGGTKLEIK
notes: murine antibody
B2: 12G5.D7 (antibody, V domains shown)
VH: QVQLKQSGAELVRPGASVKLSCKASGYTFTDYYINWVKQRPGQGLEWIARIYPGTGNTDYNEKFKGRATLTAEKSSSTAYMQLSSLTSEDSAVYFCARFAYYYGSGGYFDYWGHGTTLTVSS
VL: DILMTQSPSSMSVSLGDTVSITCHASQGINSNMGWLQQKPGKSFKGLIYHATNLEDGVPSRFSGSGSGADYSLTISSLESEDFADYYCVQYAQFPPTFGSGTKLEIK
notes: murine antibody
B3: 13G4.2F8 (antibody, V domains shown)
VH: QVQLQQPGAELVKPGASVKLSCKASGYTFTSYWMHWVKQRPGQGLEWIGMIHPNSGSTDYNEKFKNKATLNVDKSSSTAYIQLSSLTSEDSAVYYCTRWGIYYYARDYWGQGTTLTVSS
VL: DIVMTQSQKFMSTSVGERVSITCKASQNVGTNVAWYQQKAGQSLELLIYGASNRHTGVPDRFTGSGSGTDFTLTITNVQSEDMTNYFCEQYSNFPLTFGAGTKLELK
notes: murine antibody
B4: IMT006-5 (antibody, V domains shown)
VH: QVQLVQSGAEVKKPGASVKVSCKASGYSFTNYYMHWVRQAPGQRLEWMGWIYPGSGNTNYNEKFQGRVTITADTSASTAYMELSSLRSEDTAVYYCSTAPGGFDVWGQGTTVTVSS
VL: DIVMTQTPLSLSVTPGQPASISCKSSKSLLHSDGITYLYWYLQKPGQSPQLLIYRMSNLASGVPDRFSGSGSGTDFTLKISRVEAEDVGVYYCAQMLEFPLTFGQGTKLEIKR
notes: humanized antibody derived from 4A11.2B5
B5: IMT006-1 (antibody, V domains shown)
VH: B4 VH with R44G, I70M, A76I, S85R, E89D
VL: B4 VL
notes: humanized antibody derived from 4A11.2B5; also called HuIMT006-1
B6: IMT006-8 (antibody, V domains shown)
VH: B4 VH with M34I, I70L, A79T
VL: B4 VL with T7S, S12P, Q17E, K24R
notes: humanized antibody
B7: IMT001-4 (antibody, IgG4, V domains shown)
VH: QVQLVQSGSELKKPGASVKVSCKASGYTFTNYGMNWVRQAPGQGLKWMGWINTNTGEPTYVEEFTGRFVFSLETSVSTAYLQISSLKAEDTAVYFCAPYDNFFAYWGQGTTVTVSS
VL: DIVLTQSPLSLPVTPGEPASISCRSSKSLLYKDGKTYLNWFLQKPGQSPQLLIYLMSTHASGVPDRFSGSGSGTDFTLKISRVEAEDVGVYYCQQLVDYPLTFGGGTKLEIKR
notes: also called HuIMT001-4
B8: 2D10.2B2 (antibody, V domains shown)
VH: QVQLQQSGPELVKPGASVKISCKASGYTFTDYYINWVKQRPGQGLEWIGWIYPGSNDTKYNEKFKGKATLTVDTSSSTAYMQLGSLTSEDSAVYFCANYFGCSGWFFDVWGTGTTVTVSS
VL: DIVMTQAAFSNPVTLGTSASISCRSSKSLLHSDGITYLYWYLQRPGQSPQLLIYRMSNLASGVPDRFSGSGSGTDFTLRISRVEAEDVGVYYCAQMIEFPLTFGAGTILELK
notes: murine antibody
B9: 4A11.2B5 (antibody, V domains shown)
VH: QVQLQQSGPELVKPGASVKISCKASGYSFTNYYIHWVKQRPGQGLEWIGWIYPGSGNTNYNEKFKGKATLTADTSSSTTNMQLSSLTSEDSAVYYCSTAPGGFDVWGSGTTVTVSS
VL: B8 VL with I97L, I108K
notes: murine antibody; parent of IMT006-1 and IMT006-5
B10: 3B11.2G2 (antibody, V domains shown)
VH: QIQLVQSGPELKKPGETVKISCKTSGYKFKTYVMSWVKQAPGKALKWMGWINTYSGVPTYADDFKGRFAFSLETSASTAYLEIINLKNEDTATYFCARDGNYGDPMDYWGQGTSVTVSS
VL: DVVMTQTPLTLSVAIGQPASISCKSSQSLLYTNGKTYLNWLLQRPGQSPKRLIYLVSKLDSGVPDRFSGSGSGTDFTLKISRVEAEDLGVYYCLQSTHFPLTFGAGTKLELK
notes: murine antibody; also called 3B11.2D2
B11: 13A12.2E5 (antibody, V domains shown)
VH: B10 VH
VL: DVVMTQTPLTLSVAIGQPASISCKSSQSLLYTNGKTYLNWLLQRPGQSPKRLIYLLSKLDSGVPDRFSASGSGTDFTLKISRVEAEDLGVYYCLQSTHFPLTFGAGTKLEMK
notes: murine antibody
B12: 13H12.2F8 (antibody, V domains shown)
VH: QIQLVQSGPELKKPGETVKISCKASGYTFTTYGMSWVKQAPGKGLKWMGWINTYSGVPTYADDFKGRFAFSLETSASTAYLQINNLKNEDTATYFCAVPYEYDGAYWGQGTLVTVSA
VL: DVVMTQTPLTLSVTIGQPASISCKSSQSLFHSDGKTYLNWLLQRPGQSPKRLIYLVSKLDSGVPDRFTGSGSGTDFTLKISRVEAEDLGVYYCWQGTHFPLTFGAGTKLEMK
notes: murine antibody
B13: 19D9.2E5 (antibody, V domains shown)
VH: B12 VH with S35G, A76T, T91M, V98T
VL: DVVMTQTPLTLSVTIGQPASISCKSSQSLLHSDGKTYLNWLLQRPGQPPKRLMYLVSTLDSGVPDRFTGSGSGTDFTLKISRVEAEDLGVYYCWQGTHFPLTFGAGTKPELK
notes: murine antibody
B14: 14H10.2C9 (antibody, V domains shown)
VH: B12 VH with S35G, G44D, N84S, A97S, V98T
VL: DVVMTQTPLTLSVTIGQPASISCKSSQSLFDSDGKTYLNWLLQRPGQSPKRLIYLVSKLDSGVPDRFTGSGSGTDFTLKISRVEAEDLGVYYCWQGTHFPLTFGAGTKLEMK
notes: murine antibody
B15: 4G2.2G6 (antibody, V domains shown)
VH: QIQLVQSGPDLKKPGETVKISCKASGYTFTTYVMSWVKQAPGKDLKWMGWINTHSGVPTYADDFKGRFDFSLETSANTAFLQINNLKNEDTATYFCTRDGNDGDAMDNWGQGTSVTVSS
VL: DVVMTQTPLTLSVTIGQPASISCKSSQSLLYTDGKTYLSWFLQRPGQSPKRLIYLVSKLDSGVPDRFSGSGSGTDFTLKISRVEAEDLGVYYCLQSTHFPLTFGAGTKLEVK
notes: murine antibody
B16: 20D11.2C6 (antibody, V domains shown)
VH: EVQLQQSGPELVKPGASVKISCKASGYTFTDFYINWVKQSHGKSLEWIGDINPKNGGINYNPKFKIKATLTVDKSSSTSYMDLRGLTSEDSAVYYCTSGYGFPYWGQGTLVTVSA
VL: DIQMNQSPSSLSASLGDTITITCRASQNIYIWLSWYQQKPGNIPKLLIYKASNLHTGVPSRFSGSGSGTDFTLTISTLQPEDIATYFCLQGQSYPLTFGAGTKLEMK
notes: murine antibody
B17: 15G7.2A7 (antibody, V domains shown)
VH: B16 VH with F32Y, I34M, K54N, I58T, P62Q, I66G, S79A, D82E, G85S
VL: B16 VL with T20S, Y30N, K45Q, T77S, F87Y, E105V
notes: murine antibody
B18: 19B5.2E6 (antibody, V domains shown)
VH: QIQLVQSGPELKKPGETVKISCKASGYTFTTYAMSWVKQAPGKGLKWMGWINTYSGVPTYADDLKGRFAFSLETSASTAYLQINNLKNEDTATYFCARGPYAMDYWGQGTSVTVSS
VL: DIQMTQTTSSLSASLGDRVTISCSASQGINNYLNWYQQKPDGTVKLLIYYASSLHSGVPSRFSGSGSGTDYSLTISNLEPEDIATYYCQQYSQVPYTFGSGTKLEIK
notes: murine antibody
B19: 23H9.2E4 (antibody, V domains shown)
VH: B18 VH
VL: B18 VL
notes: murine antibody
B20: 20H5.A3 (antibody, V domains shown)
VH: B18 VH with T17S, T28A, A33G, K38Q, I51V, Y60C, L64F, K87R
VL: B18 VL with S22N, G28D, N30S, A51T, H55L, Y87F, Q93K, V94L, K103H
notes: murine antibody
B21: 6H6.2D6 (antibody, V domains shown)
VH: B18 VH with A33G, G49A, L64F, K87T
VL: B18 VL with N30S, A51T, Q93E, V94L
notes: murine antibody
B22: 846.2H3 (antibody, V domains shown)
VH: QIQLVQSGPELKKPGETVKISCKASGYTFTNYGMNWVKQAPGKGLKWMGWINTYTGEPSYADDFKGRFAFSLETSASTAYLQINNLKNEDMATYFCARWGGYDGDYYAMDYWGQGTSVTVSS
VL: NIMMTQSPSSLAVSAGEKVTMSCKSSQSVLYSSNQKNYLAWYQQKPGQSPKLLIYWASTRESGVPDRFTGSGSGTDFTLTISSVQPEDLAVYYCHQYLSSLTFGAGTKLELK
notes: murine antibody
B23: 846.1F5 (antibody, V domains shown)
VH: B22 VH
VL: B22 VL
notes: murine antibody
B24: 846T.1H2 (antibody, V domains shown)
VH: QIQLVQSGPELKKPGETVKISCKASGYTFTNYGMNWVKQAPGKGLKWMGWINTNTGEPTYAEEFKGRFAFSLETSASTAYLQINNLKNEDTATYFCATGGGNWDFDYWGQGTTLTVSS
VL: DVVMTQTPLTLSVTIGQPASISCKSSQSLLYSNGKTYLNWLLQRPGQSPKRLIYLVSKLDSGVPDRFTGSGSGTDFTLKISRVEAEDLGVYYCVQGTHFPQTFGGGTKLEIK
notes: murine antibody

Biological target: T6, Human Galectin-3 protein (Acro Biosystems, GA3-H5129) (human, UniProt P17931 2-250)
T6 construct: Bought protein; also called hGal3; Gal3; not shown: linker-spaced 6-histidine tag
Assay: ELISA, hGal3 coated, competitor hTIM3 (FIG. 24)

| Binder | reduction of TIM3-GAL3 binding [%] |
| --- | --- |
| B1 | ≤ 25 |
| B2 | ≤ 25 |
| B3 | ≤ 25 |

Biological target: T6, Human Galectin-3 protein (Acro …)
Assay: ELISA titration, blocking of GAL3-TIM3; competitor TIM3

| Binder | IC50 [nM] |
| --- | --- |
| B4 | 4.1 |
| B5 | 26.5 |
| B6 | 2.8 |
| B7 | 5.6 |

Biological target: T1, hGal3 peptide 6
Assay: peptide ELISA, 20-mer library (Epitope Mapping)

| Binder | binding result |
| --- | --- |
| B8 | binds |
| B9 | binds |
| B10 | binds |
| B11 | binds |
| B12 | binds |
| B13 | binds |
| B14 | binds |

Biological target: T2, hGal3 peptide 4
Assay: peptide ELISA, 20-mer library (Epitope Mapping)

| Binder | binding result |
| --- | --- |
| B10 | binds |
| B11 | binds |
| B15 | binds |

Biological target: T3, hGal3 peptide 1
Assay: peptide ELISA, 20-mer library (Epitope Mapping)

| Binder | binding result |
| --- | --- |
| B16 | binds |
| B17 | binds |

Biological target: T4, hGal3 peptide 7
Assay: peptide ELISA, 20-mer library (Epitope Mapping)

| Binder | binding result |
| --- | --- |
| B12 | binds |
| B13 | binds |
| B14 | binds |
| B16 | binds |
| B17 | binds |

Biological target: T5, hGal3 peptide 8
Assay: peptide ELISA, 20-mer library (Epitope Mapping)

| Binder | binding result |
| --- | --- |
| B16 | binds |
| B17 | binds |

Biological target: T6, Human Galectin-3 protein (Acro …)
Assay: ELISA, hGal3 coated, antibody 3 ug/mL, competitor hTIM3

| Binder | GAL3-TIM3 Blocking @ 3 ug/mL [%] |
| --- | --- |
| B1 | 0 |
| B18 | 61 |
| B19 | 80 |
| B20 | 81 |
| B21 | 82 |
| B8 | 86 |
| B9 | 48 |
| B10 | 33 |
| B11 | 35 |
| B12 | 57 |
| B13 | 34 |
| B14 | 44 |
| B2 | 12 |
| B22 | 100 |
| B23 | 90 |
| B15 | 48 |
| B3 | 0 |
| B24 | 81 |
| B16 | 40 |
| B17 | 48 |

Biological target: T6, Human Galectin-3 protein (Acro …)
Assay: SPR Biacore T200, antibody captured, Galectin-3 analyte

| Binder | Kd [nM] |
| --- | --- |
| B1 | 4.13 |
| B18 | < 1 |
| B19 | 4.26 |
| B20 | 3.95 |
| B21 | 4.86 |
| B8 | 0.753 |
| B9 | 5.22 |
| B10 | < 1 |
| B11 | 8.2 |
| B12 | 6.07 |
| B13 | < 1 |
| B14 | 0.562 |
| B2 | 1.9 |
| B22 | 10.2 |
| B23 | 2.73 |
| B15 | < 1 |
| B3 | 2.53 |
| B24 | 2.82 |
| B16 | 27.8 |
| B17 | 11.3 |

From patent publication US20260234269A1 (TRUEBINDING, published 2026)
